In this assay the target is mouse proNGF (mouse) (UniProt P01139). As to the kind of experiment: SAXS.

In general, stoichiometry N refers to a count of units in the complex or per binding partner.

Turning to “mouse proNGF (from UniProt P01139 19-241) (natural protein)”, the stoichiometry N amounted to 2.

The values are drawn from article doi:10.1101/333070.
